Source: publication PMC7673117

Experiments:
[1] = target: HLA-E loaded with Peptide 19 on 721.174 cells (human (endogenous in 721.174 cells) | Epstein-Barr virus (B95.8 laboratory strain)) (UniProt P13747)
[2] = target: HLA-E loaded with Peptide 9 on 721.174 cells (human (endogenous in 721.174 cells) | Epstein-Barr virus (B95.8 laboratory strain)) (UniProt P13747)
[3] = target: HLA-E loaded with Peptide 12 (…) on 721.174 cells (human (endogenous in 721.174 cells) | Epstein-Barr virus (B95.8 laboratory strain)) (UniProt P13747)

Measured: cytotoxicity of sorted NKG2A+NKG2C- NK cells against peptide-pulsed 721.174 cells, E:T 3:1, 5 h

NKG2A/CD94 receptor on primary human NK cells (from UniProt P26715;Q13241)
> 80%: all assays above
